Experimental data published in patent US20160202264A1, “A high-throughput assay to identify molecules that modulate Rb-E2F binding” (The Regents of the University of California, priority 2013, published 2016).
Where no end group is shown, it is not given here.

Molecular target: T1, Rb-E2F binding (RbNP construct, E2FTMR peptide) (Homo sapiens, UniProt P06400, DEL245-267/DEL582-642)
T1 construct: lacks the internal loops in each domain (residues 53-787, Δ245-267, Δ582-642)
Test: Fluorescence polarization titration of RbNP into E2FTMR
Settings: RbNP titrated into 10 nM E2FTMR
Text: The inventors have designed and successfully implemented a high-throughput fluorescence polarization assay to screen molecules for their modulation of Rb-E2F binding affinity. In the current exemplary format, a peptide corresponding to the E2F transactivation domain (E2F2 amino acids 409-428) was synthesized with a tetramethylrhodamine dye (TMR) at its N-terminus (E2FTMR). This peptide can then be mixed with various Rb constructs, which bind the peptide and change the polarization of the TMR fluorescence. For initial experiments, the investigators have used an Rb construct RbNP, which contains the Rb N-terminal domain and pocket domain but lacks the internal loops in each domain (residues 53-787, Δ245-267, Δ582-642).
The affinity of E2FTMR for unphosphorylated Rb is approximately 7-fold tighter than its affinity for phosphorylated RbNP. In the presence of 10 μM synthetic peptide that contains the ‘L×C×E’ sequence from the E7 oncoprotein, phosphorylated Rb binds E2F with 2-fold higher affinity. This peptide, which has a similar effect in calorimetry measurements of affinity, binds near the RbN-pocket interface, and the investigators predict it inhibits interdomain docking.

T1 sequence (P06400 with tags, fused parts or gaps DEL245-267/DEL582-642, one chain of several): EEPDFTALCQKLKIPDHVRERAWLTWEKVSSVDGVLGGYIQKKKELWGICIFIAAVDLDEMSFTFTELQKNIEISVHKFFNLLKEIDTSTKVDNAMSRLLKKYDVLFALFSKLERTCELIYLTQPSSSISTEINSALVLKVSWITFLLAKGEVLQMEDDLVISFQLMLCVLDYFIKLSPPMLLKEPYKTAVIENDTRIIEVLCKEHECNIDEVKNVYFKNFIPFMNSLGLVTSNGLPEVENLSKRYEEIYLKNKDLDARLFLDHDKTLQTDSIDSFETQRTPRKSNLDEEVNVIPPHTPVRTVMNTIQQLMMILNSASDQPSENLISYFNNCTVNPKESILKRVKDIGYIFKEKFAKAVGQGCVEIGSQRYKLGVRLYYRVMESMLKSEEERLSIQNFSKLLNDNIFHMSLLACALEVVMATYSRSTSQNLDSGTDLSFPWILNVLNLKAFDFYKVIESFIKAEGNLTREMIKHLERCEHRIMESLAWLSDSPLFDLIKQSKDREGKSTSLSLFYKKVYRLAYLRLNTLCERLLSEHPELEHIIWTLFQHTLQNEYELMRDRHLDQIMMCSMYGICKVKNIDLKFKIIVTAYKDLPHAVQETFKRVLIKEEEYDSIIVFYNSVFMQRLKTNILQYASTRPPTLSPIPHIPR

## E2FTMR: peptide corresponding to the E2F transactivation domain (E2F2 amino acids 409-428) with a tetramethylrhodamine dye at its N-terminus (tetramethylrhodamine-QDDYLWGLEAGEGISDLFDS; UniProt Q14209 409-428, looked up, fragment)
  Affinity of E2FTMR for unphosphorylated Rb relative to phosphorylated RbNP: approximately 7 fold
